Read-outs that look alike come from different tables or passages of the source.

For series [1], the target named is T1, PPARA;RXRA (mouse;mouse, UniProt P23204;P28700 1-468;1-467, |).
T1 sequence 1: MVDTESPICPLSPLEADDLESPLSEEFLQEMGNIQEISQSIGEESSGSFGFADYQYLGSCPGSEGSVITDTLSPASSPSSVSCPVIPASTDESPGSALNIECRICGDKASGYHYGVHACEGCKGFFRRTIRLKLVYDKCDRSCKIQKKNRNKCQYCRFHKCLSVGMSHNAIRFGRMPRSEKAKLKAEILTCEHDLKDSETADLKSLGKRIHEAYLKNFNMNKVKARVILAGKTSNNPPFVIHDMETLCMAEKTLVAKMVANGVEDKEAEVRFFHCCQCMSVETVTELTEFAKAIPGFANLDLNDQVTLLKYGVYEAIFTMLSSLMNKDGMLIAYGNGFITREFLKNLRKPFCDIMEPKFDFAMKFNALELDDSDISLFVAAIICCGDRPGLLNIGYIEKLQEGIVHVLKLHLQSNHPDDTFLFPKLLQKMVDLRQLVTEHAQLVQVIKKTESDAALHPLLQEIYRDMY
T1 sequence 2: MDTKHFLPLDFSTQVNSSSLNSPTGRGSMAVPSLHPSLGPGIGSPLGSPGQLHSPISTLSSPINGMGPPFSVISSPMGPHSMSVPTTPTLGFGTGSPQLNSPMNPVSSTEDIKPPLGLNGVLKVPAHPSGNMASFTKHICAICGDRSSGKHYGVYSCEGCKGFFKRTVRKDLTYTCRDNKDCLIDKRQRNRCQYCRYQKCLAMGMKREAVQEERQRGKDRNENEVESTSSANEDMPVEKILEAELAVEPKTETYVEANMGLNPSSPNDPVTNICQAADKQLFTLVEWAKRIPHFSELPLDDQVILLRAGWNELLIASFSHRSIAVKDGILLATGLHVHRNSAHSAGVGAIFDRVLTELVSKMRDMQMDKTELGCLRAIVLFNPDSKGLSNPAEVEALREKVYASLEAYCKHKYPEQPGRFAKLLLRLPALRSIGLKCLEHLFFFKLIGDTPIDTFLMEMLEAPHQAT
Nature of the series: EMSA. (In general: Mobility shift assays separate free from complexed probe on a gel.)

In series [2] the target is T1, PPARA;RXRA. Description: EMSA. This is another data set of the same source.

B1: Control (Acox1)-PPRE (dsDNA)
DNA 1: TCCCGAACGTGACCTTTGTCCTGGTCCCCTG
DNA 2: CAGGGGACCAGGACAAAGGTCACGTTCGGGA
B1: the binding result with PPARA;RXRA [1] is “binds”.

B2: Ppara-PPRE6 (dsDNA)
DNA 1: AAGTTTCAATGACCTTTGGGACAGTTAACTA
DNA 2: TAGTTAACTGTCCCAAAGGTCATTGAAACTT
Consider B2, for which the binding result in the series with PPARA;RXRA [2] is “binds”.

B3: E2f8-PPRE4 (dsDNA)
DNA 1: AGGCCCAGTAGGTTAAAGGGCTGACATTTTA
DNA 2: TAAAATGTCAGCCCTTTAACCTACTGGGCCT
B3: in the series with PPARA;RXRA [2], the binding result is reported as “binds”.

For the origin of these results see paper PMC9036120.
